Values joined by “and” are separate entries in the source; they are usually repeats but may differ in a detail not shown here. Equal entries are not always repeated. Each block holds one binder with its values, some of them ahead of it.
B2: HerA helicase, wild type (Sulfolobus solfataricus) (enzyme, S. solfataricus)
chain: MIIGYVIGQATTQEALILAERPVRLGTYVVLEYDNVKALGLITNVTRGSPMLDDNMNDIEIVQRLKQFNNSIPVYTKAKVKMLCDMNNHFLMPDIPPFAGTPAREAEDEELKSIYSQDGQIRIGSLIGKNVEVKLNINSFARHLAILAATGSGKSNTVAVLSQRISELGGSVLIFDYHGEYYDSDIKNLNRIEPKLNPLYMTPREFSTLLEIRENAIIQYRILRRAFIKVTNGIREKLKEGQIPFSTLNSQFYELMKDELETQGNSDKKSSAKDEVLNKFEEFMDRYSNVIDLTSSDIIEKVKRGKVNVVSLTQLDEDSMDAVVSHYLRRILDSRKDFKRSKNSGLKFPIIAVIEEAHVFLSKNENTLTKYWASRIAREGRKFGVGLTIVSQRPKGLDENILSQMTNKIILKIIEPTDKKYILESSDNLSEDLAEQLSSLDVGEAIIIGKIVKLPAVVKIDMFEGKLLGSDPDMIGEWKKVEESEKIAKGFADFGTEIGD
notes: HerA helicase of the thermophilic archaeon Sulfolobus solfataricus; In solution a mix of hexamer and heptamer; the hexamer is the form found with NurA; No tag is named in the purification; Expression and constructs may be described in the supplementary materials and methods; also called apo-HerA; wild-type HerA; source: cells lysed by sonication, lysate heated at 70°C, purified (Heparin HP, …)

What was measured:
[1] = target: B2; experiment: native MS; HerA incubated with NurA and a 25 bp blunt-ended dsDNA (protein and DNA 1:1, 30 min at room temperature), no nucleotide, 200 mM ammonium acetate; conditions: both partners purified
[2] = target: the molecule itself; experiment: native MS; HerA alone, nucleotide-free (apo), 200 mM ammonium acetate pH 7.0-7.5, nano electrospray; relative intensities by UniDec
HerA K154A = target: T1, HerA K154A (thermophilic archaeon, Sulfolobus …, UniProt Q97WG8 1-500, K154A); experiment: native MS; FA: 5 nM dsDNA, 100 mM NaCl, 20 mM Hepes-NaOH pH 8.0, 30 min room temperature (with nucleotide: 2 mM plus 5 mM MgCl2); native MS: 200 mM ammonium acetate pH 7.0-7.5, 1:1 protein:DNA, 30 min room temperature; conditions: protein: recombinant; chain copies: 6; blunt
T1 sequence: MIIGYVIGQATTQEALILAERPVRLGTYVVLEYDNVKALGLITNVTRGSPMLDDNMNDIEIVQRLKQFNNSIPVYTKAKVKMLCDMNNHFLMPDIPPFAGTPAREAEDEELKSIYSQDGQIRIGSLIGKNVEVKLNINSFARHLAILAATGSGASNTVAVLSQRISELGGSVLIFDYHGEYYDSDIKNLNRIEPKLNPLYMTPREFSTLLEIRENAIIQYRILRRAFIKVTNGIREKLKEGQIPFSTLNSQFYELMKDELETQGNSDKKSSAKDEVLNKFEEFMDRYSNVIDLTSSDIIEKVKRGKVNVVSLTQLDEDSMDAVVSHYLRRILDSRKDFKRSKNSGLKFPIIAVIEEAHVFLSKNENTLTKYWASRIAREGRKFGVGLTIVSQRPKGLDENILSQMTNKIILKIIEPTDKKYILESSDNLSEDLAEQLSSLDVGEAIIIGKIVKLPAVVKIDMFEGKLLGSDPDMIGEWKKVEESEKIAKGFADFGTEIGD

HerA;NurA = target: T2, HerA;NurA (thermophilic archaeon, Sulfolobus …, UniProt Q97WG8;Q97WH1 1-500;1-339, |); experiment: native MS; no nucleotide; dsDNA intact; FA: 5 nM dsDNA, 100 mM NaCl, 20 mM Hepes-NaOH pH 8.0, 30 min room temperature (with nucleotide: 2 mM plus 5 mM MgCl2); native MS: 200 mM ammonium acetate pH 7.0-7.5, 1:1 protein:DNA, 30 min room temperature; conditions: protein: recombinant;recombinant; tags: ;; chain copies: 6;2; blunt
T2 sequence 1: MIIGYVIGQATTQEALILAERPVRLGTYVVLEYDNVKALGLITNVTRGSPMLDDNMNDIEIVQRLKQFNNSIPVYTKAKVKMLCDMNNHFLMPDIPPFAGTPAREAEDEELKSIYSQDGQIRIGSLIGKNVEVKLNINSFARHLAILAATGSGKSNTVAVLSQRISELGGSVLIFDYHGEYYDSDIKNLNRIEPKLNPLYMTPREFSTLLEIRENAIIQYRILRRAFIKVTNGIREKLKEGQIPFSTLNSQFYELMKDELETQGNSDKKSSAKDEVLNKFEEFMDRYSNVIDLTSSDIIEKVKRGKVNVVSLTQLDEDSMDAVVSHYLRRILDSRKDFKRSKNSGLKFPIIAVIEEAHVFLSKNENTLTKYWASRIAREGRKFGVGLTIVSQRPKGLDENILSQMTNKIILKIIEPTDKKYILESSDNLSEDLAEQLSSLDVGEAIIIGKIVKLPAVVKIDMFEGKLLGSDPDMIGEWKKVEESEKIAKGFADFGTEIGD
T2 sequence 2: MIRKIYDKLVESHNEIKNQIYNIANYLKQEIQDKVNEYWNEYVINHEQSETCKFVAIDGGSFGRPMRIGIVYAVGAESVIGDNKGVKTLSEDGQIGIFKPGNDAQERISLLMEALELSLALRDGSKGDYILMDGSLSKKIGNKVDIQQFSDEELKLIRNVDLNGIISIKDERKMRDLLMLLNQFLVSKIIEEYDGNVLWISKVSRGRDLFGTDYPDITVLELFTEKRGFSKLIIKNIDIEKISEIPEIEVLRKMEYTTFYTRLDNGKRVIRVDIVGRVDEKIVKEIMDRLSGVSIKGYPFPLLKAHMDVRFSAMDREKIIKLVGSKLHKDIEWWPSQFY

HerA [3] = target: T3, HerA (thermophilic archaeon, Sulfolobus …, UniProt Q97WG8 1-500); experiment: fluorescence anisotropy; no nucleotide; HerA monomer concentration; FA: 5 nM dsDNA, 100 mM NaCl, 20 mM Hepes-NaOH pH 8.0, 30 min room temperature (with nucleotide: 2 mM plus 5 mM MgCl2); native MS: 200 mM ammonium acetate pH 7.0-7.5, 1:1 protein:DNA, 30 min room temperature; conditions: protein: recombinant; chain copies: 6; label: 5'-fluorescein on strand 1; blunt
T3 sequence: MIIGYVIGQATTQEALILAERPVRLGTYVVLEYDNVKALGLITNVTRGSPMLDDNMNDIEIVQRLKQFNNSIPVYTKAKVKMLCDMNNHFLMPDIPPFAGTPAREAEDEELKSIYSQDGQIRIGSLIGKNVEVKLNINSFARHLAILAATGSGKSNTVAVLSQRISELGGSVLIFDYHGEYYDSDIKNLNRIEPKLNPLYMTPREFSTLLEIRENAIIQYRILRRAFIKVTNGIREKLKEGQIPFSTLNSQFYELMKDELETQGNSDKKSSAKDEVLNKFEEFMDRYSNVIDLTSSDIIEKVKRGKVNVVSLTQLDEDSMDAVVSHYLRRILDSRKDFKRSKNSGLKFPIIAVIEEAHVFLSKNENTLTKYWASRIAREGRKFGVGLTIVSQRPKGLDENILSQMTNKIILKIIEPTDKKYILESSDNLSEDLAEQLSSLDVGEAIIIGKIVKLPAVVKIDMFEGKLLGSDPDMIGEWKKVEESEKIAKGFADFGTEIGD

HerA;NurA H306A = target: T4, HerA;NurA H306A (thermophilic archaeon, Sulfolobus …, UniProt Q97WG8;Q97WH1 1-500;1-339, |H306A); experiment: fluorescence anisotropy; no nucleotide; Hill fit; monomeric HerA concentration; FA: 5 nM dsDNA, 100 mM NaCl, 20 mM Hepes-NaOH pH 8.0, 30 min room temperature (with nucleotide: 2 mM plus 5 mM MgCl2); native MS: 200 mM ammonium acetate pH 7.0-7.5, 1:1 protein:DNA, 30 min room temperature; conditions: protein: recombinant;recombinant; tags: ;; chain copies: 6;2; label: 5'-fluorescein on strand 1; blunt
T4 sequence 1: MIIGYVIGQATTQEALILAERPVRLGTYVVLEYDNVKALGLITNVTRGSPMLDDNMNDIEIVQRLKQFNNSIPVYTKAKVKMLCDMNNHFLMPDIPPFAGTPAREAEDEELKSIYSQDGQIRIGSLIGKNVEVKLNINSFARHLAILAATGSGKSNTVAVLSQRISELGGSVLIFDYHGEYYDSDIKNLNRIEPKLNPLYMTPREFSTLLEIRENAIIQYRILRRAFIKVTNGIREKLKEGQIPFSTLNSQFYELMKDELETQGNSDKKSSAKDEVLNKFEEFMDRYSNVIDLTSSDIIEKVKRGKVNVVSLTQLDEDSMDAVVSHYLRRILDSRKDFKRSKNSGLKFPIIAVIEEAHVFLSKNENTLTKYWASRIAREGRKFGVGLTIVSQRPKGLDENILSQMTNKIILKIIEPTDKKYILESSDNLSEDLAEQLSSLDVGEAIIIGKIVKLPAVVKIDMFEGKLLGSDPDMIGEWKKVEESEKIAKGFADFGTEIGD
T4 sequence 2: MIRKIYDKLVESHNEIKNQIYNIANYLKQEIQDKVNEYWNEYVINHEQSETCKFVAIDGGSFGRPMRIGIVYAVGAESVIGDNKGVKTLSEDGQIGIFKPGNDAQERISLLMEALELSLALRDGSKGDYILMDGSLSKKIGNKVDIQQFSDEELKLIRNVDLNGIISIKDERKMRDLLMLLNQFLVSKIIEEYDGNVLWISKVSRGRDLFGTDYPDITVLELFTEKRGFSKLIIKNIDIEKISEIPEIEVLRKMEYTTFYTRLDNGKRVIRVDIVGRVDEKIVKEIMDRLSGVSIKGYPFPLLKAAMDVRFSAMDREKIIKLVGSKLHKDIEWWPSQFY

HerA [4] = target: T3, HerA; experiment: fluorescence anisotropy; 2 mM ATPgS, 5 mM MgCl2; HerA monomer concentration; FA: 5 nM dsDNA, 100 mM NaCl, 20 mM Hepes-NaOH pH 8.0, 30 min room temperature (with nucleotide: 2 mM plus 5 mM MgCl2); native MS: 200 mM ammonium acetate pH 7.0-7.5, 1:1 protein:DNA, 30 min room temperature; conditions: protein: recombinant; chain copies: 6; label: 5'-fluorescein on strand 1; blunt

- binding result [1]: binds
B1: NurA H306A, nuclease-inactive mutant (Sulfolobus solfataricus) (enzyme, S. solfataricus)
chain: MIRKIYDKLVESHNEIKNQIYNIANYLKQEIQDKVNEYWNEYVINHEQSETCKFVAIDGGSFGRPMRIGIVYAVGAESVIGDNKGVKTLSEDGQIGIFKPGNDAQERISLLMEALELSLALRDGSKGDYILMDGSLSKKIGNKVDIQQFSDEELKLIRNVDLNGIISIKDERKMRDLLMLLNQFLVSKIIEEYDGNVLWISKVSRGRDLFGTDYPDITVLELFTEKRGFSKLIIKNIDIEKISEIPEIEVLRKMEYTTFYTRLDNGKRVIRVDIVGRVDEKIVKEIMDRLSGVSIKGYPFPLLKAAMDVRFSAMDREKIIKLVGSKLHKDIEWWPSQFY
notes: NurA nuclease of Sulfolobus solfataricus with H306A; Made to prevent dsDNA degradation in the HerA-NurA-dsDNA complex; source: cells lysed by sonication, lysate heated at 70°C, purified (Heparin HP, HiTrap Q HP)

Binder: B2
- abundance of the heptamer over the hexamer [2]: ~10 fold
- stoichiometry N [2]: 6 and 7

B3: 25 bp dsDNA (dsDNA)
DNA 1: GTAGTCCGGACGACAAACGCCGACT
DNA 2: AGTCGGCGTTTGTCGTCCGGACTAC
- binding result (HerA K154A): no binding
- binding result (HerA;NurA): binds

B4: 5'-fluorescein 25 bp dsDNA (dsDNA)
DNA 1: GTAGTCCGGACGACAAACGCCGACT
DNA 2: AGTCGGCGTTTGTCGTCCGGACTAC
- Kd (HerA [3]): 4.85 ± 0.47 µM
- Kd (HerA;NurA H306A): 0.51 ± 0.0304 µM
- Kd (HerA [4]): 3.22 ± 0.27 µM
